Non-standard residues stand in square brackets, D forms with d. No end group written: not given here. pT = C[C@@H](OP(=O)(O)O)[C@H](N)C(=O)O
Legend:
HLA-A*02:01 [1] = molecular target: T1, HLA-A*02:01 (human); assay: UV-ligand exchange + anti-b2m ELISA; ++++ = peptide exchange yield >75%
T1 construct: MHC monomer first loaded with a UV-sensitive peptide, which is cleaved by UV and exchanged with the test peptide; captured on streptavidin plates; also called peptide-receptive MHC molecules
Source text: (§1) Candidate peptides for T cell based therapies according to the present invention were further tested for their MHC binding capacity (affinity). The individual peptide-MHC complexes were produced by UV-ligand exchange, where a UV-sensitive peptide is cleaved upon UV-irradiation, and exchanged with the peptide of interest as analyzed. Only peptide candidates that can effectively bind and stabilize the peptide-receptive MHC molecules prevent dissociation of the MHC complexes. To determine the yield of the exchange reaction, an ELISA was performed based on the detection of the light chain (β2m) of stabilized MHC complexes. The assay was performed as generally described in Rodenko et al. (Rodenko et al., 2006).
(§2) 96 well MAXISorp plates (NUNC) were coated over night with 2 ug/ml streptavidin in PBS at room temperature, washed 4× and blocked forth at 37° C. in 2% BSA containing blocking buffer. Refolded HLA-A*02:01/MLA-001 monomers served as standards, covering the range of 15-500 ng/ml. Peptide-MHC monomers of the UV-exchange reaction were diluted 100 fold in blocking buffer. Samples were incubated for 1 h at 37° C., washed four times, incubated with 2 ug/ml HRP conjugated anti-β2m for 1 h at 37° C., washed again and detected with TMB solution that is stopped with […]. Absorption was measured at 450 nm. Candidate peptides that show a high exchange yield (preferably higher than 50%, most preferred higher than 75%) are generally preferred for a generation and production of antibodies or fragments thereof, and/or T cell receptors or fragments thereof, as they show sufficient avidity to the MHC molecules and prevent dissociation of the MHC complexes.

HLA-A*02:01 [2] = molecular target: T1, HLA-A*02:01; assay: UV-ligand exchange + anti-b2m ELISA; ++ = peptide exchange yield >20%
Source text: as §1, §2

Binder	peptide exchange yield (HLA-A*02:01 [1]) [%]	peptide exchange yield (HLA-A*02:01 [2]) [%]
YLIGQHVTA (gene: FBXO21)	> 75	–
KLAEISLGV (gene: DSG3)	–	20 to 50
RLLELLQEA (gene: PROM2)	> 75	–
IIDSSPTAL (gene: ATAD5)	–	20 to 50
L[pT]LAKLEKV (gene: C9orf156) [LULAKLEKV]	–	20 to 50
LLSEDFVSV (gene: SPATA20)	–	20 to 50
GLYSGEVLV (gene: WDR34)	> 75	–
SLVDARFQL (gene: OSR1)	> 75	–

From patent US20170253633A1 (IMMATICS BIOTECHNOLOGIES, published 2017)
